The target of assay [1] is T1, human PD-1 expressed on cells (human, UniProt Q15116 25-288).
T1 construct: whole, on cells; also called HEK293 cells expressing human PD-1; PD1 Effector cells
The experiment in a line: flow cytometry on HEK293 cells expressing human PD-1. How it is done:
After 20 minutes, the cells were washed with PBS containing 0.1% BSA and 0.05% NaN₃ (PBA) and the bound antibodies were detected by incubating the cells with a PE labeled goat anti-human IgG Fc-specific probe. The excess probe was washed from the cells with PBA and the cell associated fluorescence was determined by analysis using a FACSCanto II™ instrument (BD Biosciences, NJ, USA) according to the manufacturer's directions.

Assay [2] deals with T2, recombinant human PD-1-msFc (human, UniProt Q15116 25-167, limits assumed).
T2 construct: not shown: mouse Fc ('msFc')
T2 sequence (Q15116 25-167 limits assumed): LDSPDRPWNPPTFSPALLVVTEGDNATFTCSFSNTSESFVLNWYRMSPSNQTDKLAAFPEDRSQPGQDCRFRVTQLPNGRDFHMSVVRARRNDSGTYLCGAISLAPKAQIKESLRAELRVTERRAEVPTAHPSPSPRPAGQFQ
The experiment in a line: ELISA, plate coated with recombinant human PD-1-msFc. How it is done:
Microtiter plates were coated with recombinant human PD-1-msFc in PBS, and then blocked with 5% bovine serum albumin in PBS. […] The plates were washed with PBS/Tween and then incubated with a goat-anti-human IgG Fc-specific polyclonal reagent conjugated to horseradish peroxidase at 37° C. After washing, the plates were developed with HRP substrate, and analyzed at OD 450 using a microtiter plate reader.

Results on 1 molecule are retold here after patent US20240409639A1 (CELLDEX THERAPEUTICS, published 2024).

T1 sequence (Q15116 25-288): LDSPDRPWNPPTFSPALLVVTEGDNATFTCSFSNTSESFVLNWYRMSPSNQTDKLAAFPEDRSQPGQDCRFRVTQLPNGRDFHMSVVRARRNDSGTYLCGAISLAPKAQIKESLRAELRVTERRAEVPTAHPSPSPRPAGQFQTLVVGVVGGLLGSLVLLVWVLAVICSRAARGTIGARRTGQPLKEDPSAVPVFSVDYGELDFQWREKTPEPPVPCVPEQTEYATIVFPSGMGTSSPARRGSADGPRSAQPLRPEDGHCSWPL

B1: bispecific construct CDX-585 (bispecific antibody, human IgG1, kappa)
heavy: QVQLVQSGAEVVKPGASVKISCKASGYTFTDYVMHWVRQAPGQSLEWMGVISTYHIPAVYNQKFKGKATMTVDTSTSTVYLELSSLRSEDTAVYYCAREVYGESYYFDVWGQGTTVTVSSASTKGPSVFPLAPSSKSTSGGTAALGCLVKDYFPEPVTVSWNSGALTSGVHTFPAVLQSSGLYSLSSVVTVPSSSLGTQTYICNVNHKPSNTKVDKKVEPKSCDKTHTCPPCPAPEAQGGPSVFLFPPKPKDTLYITREPEVTCVVVDVSHEDPEVKFNWYVDGVEVHNAKTKPREEQYNSTYRVVSVLTVLHQDWLNGKEYKCQVSNKALPAPIEKTISKAKGQPREPQVYTLPPSRDELTKNQVSLTCLVKGFYPSDIAVEWESNGQPENNYKTTPPVLDSDGSFFLYSKLTVDKSRWQQGNVFSCSVMHEALHNHYTQKSLSLSPGKGSSGGGGSDIQMTQSPSSLSASVGDRVTITCRASENIYSYLAWYQQKPGKAPKFLVYNADTLAEGVPSRFSGSGSGTDFTLTISSLQPEDFATYYCQHHYGTPFTFGCGTKLEIKGGGGSGGGGSGGGGSGGGGSQVQLVQSGAEVKKPGASVKVSCKASGYSFTGYTMHWVRQAPGQCLEWMGLINPYTGGTDYNQKFQGRVTMTVDRSTSTAYMELSSLRSEDTAVYYCARERPGGSQFIYYYALDYWGQGTTVTVSS
light: DIVMTQTPLSLPVTPGEPASISCRSSQSIVHSAGNTYLEWYLQKPGQSPQLLIYKVSNRFSGVPDRFSGSGSGTDFTLKISRVEAEDVGVYYCFQGSHVPYTFGGGTKVEIKRTVAAPSVFIFPPSDEQLKSGTASVVCLLNNFYPREAKVQWKVDNALQSGNSQESVTEQDSKDSTYSLSSTLTLSKADYEKHKVYACEVTHQGLSSPVTKSFNRGEC
notes: Tetravalent format, bivalent for each target; The Fc carries L234A, L235Q, K322Q (AQQ) and M252Y, S254T, T256 (YTE); The scFv is stabilised by a disulfide from Gly to Cys at positions 558 and 629 of the mature heavy chain; also called E1A9-7B1; bsAb
Turning to B1, the binding result in assay [1] and in assay [2] was “binds” in each case.
